{
  "source": "the DeepSol protein solubility set",
  "data": [
    {"assay": "soluble on expression in E. coli; label from the status in PepcDB or PDB records", "values": [
      {"sequence": "MSLLEWDLSALFHDKEALQNFTQDQIQQSLNFKKNYENKLYTLNANEFLQALKDYENLNQALGKIMTYAYLLFAKNTQNGSFYAQYEEECKKIEENLLFFELEFCELAPEKSREFTTFCKDYDFYLSNLLQNKRYNLSKNEERIMLYLSNTGANAFSRLFDESMSALKIPFEGKKLSEEEILSKMYDENRKIRKKAAKKFSKVLQKNSRLLSFIINMIKTERKNISLLRGYENAEISRHISNQISQKSVDSLIASAQKHFNLVSQFYKRKKQILGYDELKDYDRYAPIGKEASFDFKTSKNIVLEAFQAFSPQFYDIAKNAFDQGWIDVYPQENKQGGAFSHSATSDAHPFVLLNHTNKRRDLFTLAHELGHTIHQKLSYNVSYLNQNTPLTTAETASVFAEMLVFDFIKDKLKKEELLSLYANKIEDIFATFYRQINFTCFERRLHAQENELSTEEINKIWMEESQKMFQDSVKLTKNYASWWSYIPHFIHSPFYCYAYAYAQLLVLALYGLYKSKKCENFKELYIKMLSLGGSVSPKELVGMFGFDIEDENFWEIGIKEIQKLINEFMELQSEGHHHHHH", "soluble on expression in E. coli": "soluble"},
      {"sequence": "MSLLFYVAYLGFYIAPTKLVRNKIKSWLLNASEYDFTDIKEGIRLHLNESPFEPPQFIIDAVKMYLSKGNRYQHPDLLEKYRELAAEYSKVEPENIYPSVGADGSIRAIFYNLVEPGDTILTNYPSYSMYSVYSSVRGTKVIKVNLKEDNEWWKENTDDLLAQAEKVELVIIDDPNNPTGSPMLNGKKELIGQLAENTKGFVVIDEAYYEFGGYTVSPYIYDYPNVLVVRTLSKAFSLASYRLGYTIANEEIVKALMKSSTPFDIPLPSLIAGITALENPSYIKDVVNIVNRNREILYQGLKNLNLKVYKSITNFLLIKDNRNLQEMLMRHGIAIRKLYDNFYRITIGTEDQCKMVIDKLGEELENSNSEGHHHHHH", "soluble on expression in E. coli": "not soluble"},
      {"sequence": "MSLLQEMTIKNFAIIESLSLTFQEGMTVLTGETGAGKSIIIDALGLLVGGRGSADFIRHGEERLELQGLFALAEDNLACRNALIENGIDASDDMVVLERSLFRSGKNSCRINGKLVTTVLLRQIGSKLIDIHSQHEHQELMNEEFHLSLLDRFASDKIKPALTKYQTNFKEYQTIEKEWQNWTKNERELAQRLDMLRFQQQEIENANLQAGEEDRLLEQKNILANFEKLNENLQGAYAAIQGEPGGLEFVGEAMRQMEAAASIHTDYKAVSEAISSSYYMLEDSMSQIRQSLDQLEFQPEELNQIESRLNDLNQLKRKYGKTIEDIIQYEQEISSEMEKLTDSESHVGHLETKLATLKAELTKQANTLTEIRKKAAVTLEKQIKQELNHLYMEKAIFSVRFEANKMELTDSGQDSVVFYMSTNPGEPLKPLAKIASGGELSRMMLALKTIFSRHQGITSIIFDEVDTGVSGRVGQAIAEKIYAVSVGSQVLCISHLPQVAAMANHHYYITKKVQNKRTTTSVTVLKGEEKVEEISRMIAGIEVTELTKQHAKEMIEQAEKVKQTYEGHHHHHH", "soluble on expression in E. coli": "soluble"},
      {"sequence": "MSLLQVAPSAYRRHAARQRCPKLRSARSQRDEGLMAEIRRVWQANMQVYGVRKVWYQLQREGIAVARCTVERLMRRLGLQGVRRGKRVRTTIADGSQACSLDRVNRHFHADRPNQLWVSDFTYVSTWQGWLYVAFVIDVFARRIVGWRVSTTMSTDFVLDALEQALYDRRPAESLIHHSDRGSQYVSIRYTERLAEAGIEPSVGSRGDSYDNALAETINGLYKAELIHRRAPWKTRAAVELATLEWVAWYNHQRLLGSIGYIPPAQAEELYHRTHSETVPMNAVLEGHHHHHH", "soluble on expression in E. coli": "not soluble"},
      {"sequence": "MSLLVLGIESSCDETGVALYDTERGLRAHCLHTQMAMHAEYGGVVPELASRDHIRRLVPLTEGCLAQAGASYGDIDAVAFTQGPGLGGALLAGSSYANALALALDKPVIPVHHLEGHLLSPLLAEEKPDFPFVALLVSGGHTQIMAVRGIGDYALLGESVDDAAGEAFDKTAKLLGLLYPGGAKLSELAESGRFEAFVFPRPMIHSDDLQMSFSGLKTAVLTAVEKVRAENGADDIPEQTRNDICRAFQDAVVDVLAAKVKKALLQTGFRTVVVAGGVGANRKLRETFGNMTVQIPTPKGKPKHPSEKVSVFFPPTAYCTDNGAMIAFAGAMHLGKGREVGAFNVRPRWPLSEIVREGHHHHHH", "soluble on expression in E. coli": "soluble"},
      {"sequence": "MSLMAVNVNTNVAAMTAQRYLTGATNAQQTSMERLSSGFKINSAKDDAAGLQISNRLNVQSRGLDVAVRNANDGISIAQTAEGAMNETTNILQRMRDLSLQSANGSNSKSERVAIQEEITALNDELNRIAETTSFGGNKLLNGTFSTKSFQIGADNGEAVMLTLKDMRSDNRMMGGTSYVAAEGKDKDWKVQAGANDITFTLKDIDGNDQTITVNAKEGDDIEEVATYINGQTDMVKASVNEKGQLQIFAGNNKVTGDVAFSGGLAGALNMQAGTAETVDTIDVTSVGGAQQSVAVIDSALKYVDSHRAELGAFQNRFNHAISNLDNINENVNASKSRIKDTDFAKETTALTKSQILSQASSSVLAQAKQAPNAALSLLG", "soluble on expression in E. coli": "soluble"},
      {"sequence": "MSLMPFHLAIPVHDLPAARRFYGEVFGLSEGRSAEHWVDFDFFGHQLVIHQHPQTDSQRHAGSNPVDGHDVPVPHFGVVLAWDDWHALAERLQQRGTRFVIEPYIRFKGQVGEQATLFLFDPCGNALEFKSFRDMGQLFAKLEHHHHHH", "soluble on expression in E. coli": "soluble"},
      {"sequence": "MSLNAQLNDLGPIKAVIFDMDGLLLDTEGIYTEITQLIAERYGRTYDWTIKQNIIGRGAGDLARYVVQALDLPISAEEFLVMREPLMRERFPRAQAMPGAQELVRHLKEHRIPIAVGTSSSQMSFGEKTTRHGDWFALFDTIVTADDPEVTAAKPAPDIFLTAARRLGVAPAECLVFEDSPFGVTAARAAGMSVIAVPDPAMADSKFAHAHGIIRSLKGFQPAACGLPHLHWDEGHHHHHH", "soluble on expression in E. coli": "soluble"},
      {"sequence": "MSLNDQIKIRKATKEDWEKIYQLYNSLSDEDLYLRFFHLYRITEEDAKKIASNEDHVTFLAEVDGKVVGEASLHKDGEFSLVVHRNYRTLGIGTLLVKTLIEEAKKSGLSTVKFYTLPENTPMIKIGRKLGFKMRFYEDEVYGEMRLTERELNVNLATFSAPEGHHHHHH", "soluble on expression in E. coli": "soluble"},
      {"sequence": "MSLNDTVTVRISFAVNIATRVIAEVPLFSLTKPSHQELLQKIAEQSRSPFNYPDVGASLCEFPSGYEHHHHRVRLGRGQEVFDRAKEALGNWRQFDVGWVEAIPSDTSITVGNTIAIRVRIFGVWAMAFDRIVDVYGEQDGECRRFGFSVGTLTEHPEQGEERFSIEIDREDHVDYEVAAFFRPNTLAAKMAWPVLHRRFNRFRNQSAEAMQLACKLGPSSEGHHHHHH", "soluble on expression in E. coli": "not soluble"},
      {"sequence": "MSLNEMEKRPEDTRVVVGMSGGVDSSVAALLLKEQGYDVIGIFMKNWDDTDENGFCTATEDYEDVIRVCNQIGIPYYAVNFEKQYYEKVFQYFLDEYKAGRTPNPDVLCNKEIKFKAFLEHALSLGADYLATGHYARVDRSGGKVRMLRGIDENKDQTYFLNQLTEDTLSKVMFPIGELQKSRVREIAKEAELATATKKDSTGICFIGERNFKTFLSQYLPAQPGDMMTMDGEVKGRHDGLMYYTIGQRHGLGIGGSGEPWFAVGKDLEKNILYVDQGFHNPLLYSDKITATNISWVRSDIMKGEEISCTAKFRYRQEDHKVTVRMTGEGEAEVIFDEQVRAVTPGQAVVFYDGEECLGGGTIDDVYKDGTKLWYVEGHHHHHH", "soluble on expression in E. coli": "soluble"},
      {"sequence": "MSLNHPDYKLNLRSPGTPRGVSSVVGPSAVGASPGDKKSKNKSMRGKKKSIFETYMSKEDVSEGLKRGTLIQGVLRINPKKFHEAFIPSPDGDRDIFIDGVVARNRALNGDLVVVKLLPEDQWKAVKPESNDKEIEATYEADIPEEGCGHHPLQQSRKGWSGPDVIIEAQFDDSDSEDRHGNTSGLVDGVKKLSISTPDRGKEDSSTPVMKDENTPIPQDTRGLSEKSLQKSAKVVYILEKKHSRAATGILKLLADKNSDLFKKYALFSPSDHRVPRIYVPLKDCPQDFMTRPKDFANTLFICRIIDWKEDCNFALGQLAKSLGQAGEIEPETEGILTEYGVDFSDFSSEVLECLPQSLPWTIPPDEVGKRRDLRKDCIFTIDPSTARDLDDALACRRLTDGTFEVGVHIADVSYFVPEGSSLDKVAAERATSVYLVQKVVPMLPRLLCEELCSLNPMTDKLTFSVIWKLTPEGKILEEWFGRTIIRSCTKLSYDHAQSMIENPTEKIPEEELPPISPEHSVEEVHQAVLNLHSIAKQLRRQRFVDGALRLDQLKLAFTLDHETGLPQGCHIYEYRDSNKLVEEFMLLANMAVAHKIFRTFPEQALLRRHPPPQTKMLSDLVEFCDQMGLPMDVSSAGALNKSLTKTFGDDKYSLARKEVLTNMYSRPMQMALYFCSGMLQDQEQFRHYALNVPLYTHFTSPIRRFADVIVHRLLAAALGYSEQPDVEPDTLQKQADHCNDRRMASKRVQELSIGLFFAVLVKESGPLESEAMVMGVLNQAFDVLVLRFGVQKRIYCNALALRSYSFQKVGKKPELTLVWEPDDLEEEPTQQVITIFSLVDVVLQAEATALKYSAILKRPGLEKASEGHHHHHH", "soluble on expression in E. coli": "soluble"},
      {"sequence": "MSLNIIERQKLTQSLKLSQMMKLSINILKMSVMDLNKFIEKEFSEDSGISVELNYSKKENFNGGKEAEMNYPTDEKNFFQILEEQLSYFKINKKIKEICIFIINNLDKKGYLELSKIEIKDILEVSNKELEEAFDIIHNLEPYGIGAYSLEECLKIQLKAKKIIEEKLSLFIDNYLYLLADKKYDLIKEKLNINDNILFSYIDIIKSLNPIPSRGYSVGKVRKIIPDVLVEIKKNEIFYEINRASIPQINVKDKIEDEGHHHHHH", "soluble on expression in E. coli": "not soluble"},
      {"sequence": "MSLNIIRLLAESLPRISDGNENTDVWVNDMKFKMAYSFLNDDIDVIERELEQTVRSDYPLLSEAGLHLLQAGGKRIRPVFVLLSGMFGDYDINKIKYVAVTLEMIHMASLVHDDVIDDAELRRGKPTIKAKWDNRIAMYTGDYMLAGSLEMMTRINEPKAHRILSQTIVEVCLGEIEQIKDKYNMEQNLRTYLRRIKRKTALLIAVSCQLGAIASGADEKIHKALYWFGYYVGMSYQIIDDILDFTSTEEELGKPVGGDLLQGNVTLPVLYALKNPALKNQLKLINSETTQEQLEPIIEEIKKTDAIEASMAVSEMYLQKAFQKLNTLPRGRARSSLAAIAKYIGKREGHHHHHH", "soluble on expression in E. coli": "soluble"},
      {"sequence": "MSLNKESLKEYLSSRYQGWSSFLNNVIFPIFGEDDFEDGFETELLESQPERRQLAEATGIRSIKQVGMMYVGVEPLQIFDVTVSDRVMMEHNRVNIQRLIRAVMDQFSCAFMLFHYEDDTRWDWRFTYCRKSGNKEESTDSKRYTFLLGPGQSCRTATDNFIALYDKRNSLEIKDIENAFNVEALSKEFFGKYKAQYEAFVNYMVDPTNGMRQHFIDTGFDHTGMAADKIRDREEKPIRDYVKKLLGRIVFLHFLQKKGWLGVPASKEWGEGDRDFMLNIFKNANERQKENFLDDILEDLFTEGLDRNRSDQGDLYDTKVEGFRNCRIPYLNGGLFERDILDKKPSHFPASYFNGLLTMLSQYNFTIDENDPNDAEVGVDPEMLGRIFENLLEDNKDKGAFYTPKEIVQYMCRESLIAYLQTDMREEDKECIRQFVTTHDASQLGELKEYIDQKLYDVKICDPAIGSGAFPMGLLRELFFCRSAIEPNIVENAANIKRHIIQNNIYGVDIERGAVDIARLRFWLSLIVDEKSPEALPNLDFKIMQGNSLLEQYKGVDLSTEGHHHHHH", "soluble on expression in E. coli": "soluble"},
      {"sequence": "MSLNLIKYGLTTAVQADLTKENGQILGRIIGQHRDWYQVITTAGERSAQVTGKLAYEAASPAAFPAVGDWVCLSSSADNQAQIEAIAPRQSVLARGAVNRQDGQIIATNINTIFICMSLNADFNVRRLERYLTIAWDSGALPVIVLTKADLCTDLATKLRAVADVSVGVPTITCSVETGQGLDELQPYLTTGQTVAFVGSSGVGKSTLINRLLGQDILATKSIRTDDNKGRHTTTSRQLIPLPTGACVIDTPGMRELQIFMGDLNQTFAEIAALATQCKFNDCTHTSEPGCAVRAAVEVGTVTSERLQSYQKLQREMSYQGEGHHHHHH", "soluble on expression in E. coli": "soluble"}
    ]}
  ]
}
